{"source": "patent US6663886B2", "about": "“Inhibition of cell-cell binding by lipid assemblies” (Regents of the University of California, priority 1997, dated 2003)", "origin": "cited, not measured here", "molecules": {"B1": {"name": "natural ligand: natural ligand of P-selectin, P-selectin glycoprotein ligand 1 (protein, UniProt Q14242 42-412, looked up)", "P-selectin glycoprotein …": "QATEYEYLDYDFLPETEPPEMLRNSTDTTPLTGPGTPESTTVEPAARRSTGLDAGGAVTELTTELANMGNLSTDSAAMEIQTTQPAATEAQTTQPVPTEAQTTPLAATEAQTTRLTATEAQTTPLAATEAQTTPPAATEAQTTQPTGLEAQTTAPAAMEAQTTAPAAMEAQTTPPAAMEAQTTQTTAMEAQTTAPEATEAQTTQPTATEAQTTPLAAMEALSTEPSATEALSMEPTTKRGLFIPFSVSSVTHKGIPMAASNLSVNYPVGAPDHISVKQCLLAILILALVATIFFVCTVVLAVRLSRKGHMYPVRNYSPTEMVCISSLLPDGGEGPSATANGGLSKAKSPGLTPEPREDREGDDLTLHSFLP"}}, "biological_target": "T1, P-selectin (Homo sapiens, UniProt P16109)", "T1 sequence (P16109 42-830)": "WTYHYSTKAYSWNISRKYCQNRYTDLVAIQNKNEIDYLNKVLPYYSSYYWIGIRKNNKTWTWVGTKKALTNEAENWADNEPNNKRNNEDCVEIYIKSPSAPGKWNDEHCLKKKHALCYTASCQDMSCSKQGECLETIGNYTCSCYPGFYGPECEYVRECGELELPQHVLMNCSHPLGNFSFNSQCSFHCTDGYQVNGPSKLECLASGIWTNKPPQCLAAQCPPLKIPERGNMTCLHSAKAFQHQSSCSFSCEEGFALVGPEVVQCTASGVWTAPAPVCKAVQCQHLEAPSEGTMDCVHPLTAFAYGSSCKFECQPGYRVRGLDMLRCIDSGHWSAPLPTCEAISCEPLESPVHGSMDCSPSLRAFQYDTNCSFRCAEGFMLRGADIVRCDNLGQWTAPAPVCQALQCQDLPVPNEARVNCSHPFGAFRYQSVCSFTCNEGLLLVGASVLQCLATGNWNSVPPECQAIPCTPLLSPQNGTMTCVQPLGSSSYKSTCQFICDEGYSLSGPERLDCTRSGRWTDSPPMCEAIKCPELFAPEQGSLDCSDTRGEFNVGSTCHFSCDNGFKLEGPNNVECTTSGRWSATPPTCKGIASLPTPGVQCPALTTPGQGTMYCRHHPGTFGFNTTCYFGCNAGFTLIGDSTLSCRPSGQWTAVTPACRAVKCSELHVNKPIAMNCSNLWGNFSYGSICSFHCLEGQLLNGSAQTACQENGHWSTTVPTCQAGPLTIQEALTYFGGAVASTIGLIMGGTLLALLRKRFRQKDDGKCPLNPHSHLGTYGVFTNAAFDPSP", "details": "literature (Nelson et al. 1993; Moore et al. 1991)"}
{"molecule": "B1", "values": [{"measurement": "binding affinity of P-selectin", "value": "in the nM range"}]}
